One experiment addresses IL2 (R&D, 202-IL) (UniProt P60568 21-153). Kind of experiment: ELISA, scFv on anti-V5. From the text:
The scFv DNA sequence for each clone was synthesized as a GBLOCK® (Integrated DNA Technologies, Inc.) with a T7 promoter, a translation initiation site, the coding sequence for the scFv sequence with cMyc and V5 tags, and a T7 terminator sequence. Proteins from each of the GBLOCK® fragments were expressed using a cell-free transcription/translation system (Cosmo Bio USA, Inc., PUREFREX® 2.1, Product #GFK-PF213 with DS Supplement, Prod. #GFK-PF005). […] In these experiments, wells of a 384-well plate were coated with an anti-V5 antibody (Sv5-Pk1, BioRad) at lug/ml overnight at 4 degrees. After washing, wells were blocked with SUPERBLOCK™ (ThermoFisher, 37515) followed by addition of saturating levels of scFvs in SUPERBLOCK™. After washing, antigens were added and plates incubated for one hour. To detect PD1 binding, a biotinylated recombinant PD1 was used (PD1-HisAvi, Acro Biosystems, PD1-H82E4). […] Biotinylated antigens were detected using streptavidin HRP using standard methods. Varying amounts of labelled test antigen were added to show binding and to estimate relative affinities of the different scFvs.

The target in experiment [1] is T1, biotinylated IL-2 receptor beta gamma heterodimer Fc (IL-2RBG; Acro ILG-H5254) (UniProt P14784 27-239; P31785 23-262, biotinylated).
T1 construct: bought heterodimer
T1 sequence (looked up) 1: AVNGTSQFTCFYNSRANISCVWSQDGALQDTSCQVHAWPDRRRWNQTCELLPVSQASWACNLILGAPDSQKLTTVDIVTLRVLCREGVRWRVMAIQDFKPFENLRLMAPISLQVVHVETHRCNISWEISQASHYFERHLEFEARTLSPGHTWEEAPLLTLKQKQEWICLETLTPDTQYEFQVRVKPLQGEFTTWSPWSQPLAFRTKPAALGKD
T1 sequence (looked up) 2: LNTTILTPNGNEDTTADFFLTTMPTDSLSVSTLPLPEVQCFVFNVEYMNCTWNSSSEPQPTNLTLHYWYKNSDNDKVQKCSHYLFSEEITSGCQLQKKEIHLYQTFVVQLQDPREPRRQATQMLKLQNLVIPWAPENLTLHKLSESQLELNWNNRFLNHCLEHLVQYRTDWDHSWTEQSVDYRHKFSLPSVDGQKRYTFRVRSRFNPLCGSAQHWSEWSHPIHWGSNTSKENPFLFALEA
Kind of experiment: ELISA, captured complex, biotin-IL-2RBG titrated. (In general: In an ELISA, binding on a coated surface is turned into a signal by an enzyme label.)

The text below walks through data of patent US20240366776A1 (Hoffmann-La Roche, published 2024).

B1: AB000694 (anti-PD1 control) scFv (AF005039) (scFv, V domains shown)
VH: QVQLVESGGGVVQPGRSLRLDCKASGITFSNSGMHWVRQAPGKGLEWVAVIWYDGSKRYYADSVKGRFTISRDNSKNTLFLQMNSLRAEDTAVYYCATNDDYWGQGTLVTVSS
VL: EIVLTQSPATLSLSPGERATLSCRASQSVSSYLAWYQQKPGQAPRLLIYDASNRATGIPARFSGSGSGTDFTLTISSLEPEDFAVYYCQQSSNWPRTFGQGTKVEIK
notes: scFv with cMyc and V5 tags; also called AB000694_nivo
B1: in the experiment with IL2 (R&D, 202-IL), the binding result was “no binding”.

B2: AF004695 (other)
heavy 1: QVQLVESGGGVVQPGRSLRLDCKASGITFSNSGMHWVRQAPGKGLEWVAVIWYDGSKRYYADSVKGRFTISRDNSKNTLFLQMNSLRAEDTAVYYCATNDDYWGQGTLVTVSSAKTTAPSVYPLAPVCGDTTGSSVTLGCLVKGYFPEPVTLTWNSGSLSSGVHTFPAVLQSDLYTLSSSVTVTSSTWPSQSITCNVAHPASSTKVDKKIEPRGPTIKPCPPCKCPAPNAAGGPSVFIFPPKIKDVLMISLSPIVTCVVVDVSEDDPDVQISWFVNNVEVHTAQTQTHREDYNSTLRVVSALPIQHQDWMSGKEFKCKVNNKDLGAPIERTISKPKGSVRAPQVYVLPPPEEEMTKKQVTLTCMVTDFMPEDIYVEWTNNGKTELNYKNTEPVLDSDGSYFMYSDLRVEKKNWVERNSYSCSVVHEGLHNHHTTESFSRTPGGGGGSGGGGSGGGGSAPTSSSTKKTQLQLEHLLLDLQMILNGINNYKNPKLTDMLTFEFYMPKKATELKHLQCLERELKPLEEVLNLAQSKNFHLRPRDLISNINVIVLELKGSETTFMCEYADETATIVEFLNRWITFCQSIISTLT
heavy 2: QVQLVESGGGVVQPGRSLRLDCKASGITFSNSGMHWVRQAPGKGLEWVAVIWYDGSKRYYADSVKGRFTISRDNSKNTLFLQMNSLRAEDTAVYYCATNDDYWGQGTLVTVSSAKTTAPSVYPLAPVCGDTTGSSVTLGCLVKGYFPEPVTLTWNSGSLSSGVHTFPAVLQSDLYTLSSSVTVTSSTWPSQSITCNVAHPASSTKVDKKIEPRGPTIKPCPPCKCPAPNAAGGPSVFIFPPKIKDVLMISLSPIVTCVVVDVSEDDPDVQISWFVNNVEVHTAQTQTHREDYNSTLRVVSALPIQHQDWMSGKEFKCKVNNKDLGAPIERTISKPKGSVRAPQVYVLPPPEKEMTKKQVSLTCLVKDFMPEDIYVEWTNNGKTELNYKNTEPVLKSDGSYFMYSKLTVEKKNWVERNSYSCSVVHEGLHNHHTTKSFSRTPGGGGGSGGGGSGGGGSGGGGSQVQLVQSGAEVKKPGASVKVSCKASGDTFTRYYVHWVRQAPGQGLEWMGIINPSGGYASYAQKFQGRVTMTRDTSTSTVYMELSSLRSEDTAVYYCAAGLFIWGQGTLVTVSSASGGGGSGGGGSGGGGSHASDIQMTQSPSSLSASVGDRVTITCRASQSIGRWLAWYQQKPGKAPKLLIYSASNLETGVPSRFSGSGSGTDFTLTISSLQPEDFATYYCQQYNRFPVTFGPGTKVDIK
light: EIVLTQSPATLSLSPGERATLSCRASQSVSSYLAWYQQKPGQAPRLLIYDASNRATGIPARFSGSGSGTDFTLTISSLEPEDFAVYYCQQSSNWPRTFGQGTKVEIKRADAAPTVSIFPPSSEQLTSGGASVVCFLNNFYPKDINVKWKIDGSERQNGVLNSWTDQDSKDSTYSMSSTLTLTKDEYERHNSYTCEATHKTSTSPIVKSFNRNEC
notes: also called AF4695
For the molecule B2, the binding result in experiment [1] is on record as “binds”.

B3: AF004696 (other)
heavy 1: B2 heavy 1
heavy 2: QVQLVESGGGVVQPGRSLRLDCKASGITFSNSGMHWVRQAPGKGLEWVAVIWYDGSKRYYADSVKGRFTISRDNSKNTLFLQMNSLRAEDTAVYYCATNDDYWGQGTLVTVSSAKTTAPSVYPLAPVCGDTTGSSVTLGCLVKGYFPEPVTLTWNSGSLSSGVHTFPAVLQSDLYTLSSSVTVTSSTWPSQSITCNVAHPASSTKVDKKIEPRGPTIKPCPPCKCPAPNAAGGPSVFIFPPKIKDVLMISLSPIVTCVVVDVSEDDPDVQISWFVNNVEVHTAQTQTHREDYNSTLRVVSALPIQHQDWMSGKEFKCKVNNKDLGAPIERTISKPKGSVRAPQVYVLPPPEKEMTKKQVSLTCLVKDFMPEDIYVEWTNNGKTELNYKNTEPVLKSDGSYFMYSKLTVEKKNWVERNSYSCSVVHEGLHNHHTTKSFSRTPGGGGGSGGGGSGGGGSGGGGSQVQLVQSGAEVKKPGASVKVSCKASGYTFTRYYMHWVRQAPGQGLEWMGIINPRAGYTSYALKFQGRVTMTRDTSTSTVYMELSSLRSEDTAVYYCTSGWDVWGQGTLVTVSSASGGGGSGGGGSGGGGSHASDIQMTQSPSSLSASVGDRVTITCRASQSISTWLAWYQQKPGKAPKLLIYAASSLDSGVPSRFSGSGSGTDFTLTISSLQPEDFATYYCQQSYSFPVTFGQGTKVEIK
light: B2 light
notes: also called AF4696
With B3, in experiment [1], the binding result was “binds”.

B4: AB000880 (anti-PD1 control) scFv (AF000327) (scFv)
scFv: MSTSTEQKLISEEDLQVQLVQSGAEVKKPGASVKVSCKASGYTFTTYYMHWVRQAPGQGLEWMGIINPSGGGTLYAQKFQGRVTMTRDTSTSTVYMELSSLRSEDTAVYYCAAGLFIWGQGTTVTVSSASGGGGSGGGGSGGGGSHASDIVMTQSPDSLAVSLGERATINCKASQSLLHSSSNKNYLAWYQQKPGQPPKLLIYWASTRESGVPDRFSGSGSGTDFTLTISSLQAEDVAVYYCQQYYSTPITFGPGTKVDIKGSGLNDIFEAQKIEWHEGKPIPNPLLGLDST
notes: also called AB000880_PD1_R04_C10
In the case of B4, in the experiment with IL2 (R&D, 202-IL), the binding result is listed as “no binding”.
